Like-named read-outs stand apart in the source and are kept apart here.
Legend:
Stability in buffer = format: physicochemical; conditions: for half-life at 5 μM: buffer solution, read-out: Mean T 1/2 (converted)
Method: Working solutions of Compound 5 (1 mM of) and Compound 3 (1 mM) were prepared. Buffer solution (199 μL) was prepared and divided into fourteen incubation tubes. The tubes were then pre-warmed at 37° C. for 15 minutes. The 1 mM Compound 5 working solution was added to seven incubation tubes (1 μL each) for a final concentration of 5 μM and the 1 mM Compound 3 working solution was added to seven incubation tubes (1 μL each) for a final concentration of 5 μM. For Compound 5, the final concentration of organic solvents was 0.5%. Each samples was incubated at 37° C. for 0, 4, 8, 24, 48, 72, or 120 hours. The assay was performed in duplicate. After incubation for 0, 4, 8, 24, 48, 72 or 120 hours, reactions were quenched by the addition of 1000 μL methanol (pre-cool treatment under 4° C.) with 2% FA containing internal standards. All samples were vortexed for 10 minutes. 150 μL of the supernatant from each sample was transferred to a new plate. 150 μL of pure water was added to each sample for analysis by LC-MS/MS (cooler temperature: 15° C.). All calculations were carried out using Microsoft Excel. Peak area ratios were determined from extracted ion chromatograms. Percent compounds remaining at each time point were calculated by the following equation: Remaining Percentaget min(%)=(Peak Area Ratiot min/Peak Area Ratio0 min)×100
Peak Area Ratiot min is peak area ratio of test compounds at t min; and
Peak Area Ratio0 min is peak area ratio of test compounds at zero time point.
(§1) The slope value, k, was determined by linear regression of the natural logarithm of the remaining percentage of the parent drug vs. incubation time curve.
The in vitro half-life (in vitro t1/2) was determined from the slope value: in vitro t1/2=(0.693/k) Appearance of Taxol concentration (nM)=Peak Area Ratio t min/Peak Area Ratio(Taxol: 5 μM)×5000% Appearance of Taxol=Peak Area Ratio min/Peak Area Ratio(Taxol: 5 μM)×100

[1] = Stability in plasma, human; format: in vitro ADME; conditions: for half-life: 37° C., read-out: Mean T1/2 (converted)
Method: (§2) Working solutions of test compounds were prepared in PBS (pH 7.4). Propantheline was used as positive control for human, monkey, dog and mouse plasma in the assay. Mevinolin was used as positive control for rat plasma in this assay. 1 mM propantheline working solution was prepared in acetonitrile. 1 mM mevinolin working solution was prepared in DMSO. Incubation buffer of 475 μL plasma for each cell was added into the incubation plate and pre-warmed at 37° C. for 15 minutes. After the pre-incubation, 25 μL of working solution (test compounds or control compounds) was spiked to plasma. For Compound 5 and Compound 3, the final concentration of organic concentration was 0%. For Taxol, the final concentration of organic solvents was 0.25%. The assay was performed in duplicate. The reaction samples were incubated at 37° C. Aliquots of 50 μL were taken from the reaction samples at 0, 0.25, 0.5, 1, 2, 4, 6, 8 and 24 hours. The reactions were stopped by the addition of 450 μL of ice-cold quench solution (methanol with 2% FA containing internal standards). All samples were vortexed for 10 minutes, following by centrifugation at 3,220 g for 30 minutes to precipitate proteins. 100 μL of the supernatant from each well was transferred to a new plate. The supernatant was diluted with ultrapure water. Samples were analyzed by LC-MS/MS. All calculations were carried out using Microsoft Excel. Peak area ratios were determined from extracted ion chromatograms. Percent compounds remaining at each time point were calculated by the following equation: Remaining Percentaget min(%)=Peak Area Ratiot min/Peak Area Ratio0 min×100
(§3) Peak Area Ratiot min is peak area ratio of control and test compounds at t min; and
(§4) Peak Area Ratio0 min is peak area ratio of control and test compounds at zero time point.
as §1
(§5) The in vitro half-life (in vitro t1/2) was determined from the slope value: in vitro t1/2=(0.693/k)

Stability in plasma, dog = format: in vitro ADME; conditions: for half-life: 37° C., read-out: Mean T1/2 (converted)
Method: as §2, §3, §4, §1, §5

Compound	Percent Increase of T1/2, Compound 3 over Compound 5 (Stability in buffer; buffer pH 5.5) [%]	Percent Increase of T1/2, Compound 3 over Compound 5 (Stability in buffer; buffer pH 6.0) [%]	Percent Increase of T1/2, Compound 3 over Compound 5 (Stability in buffer; buffer pH 6.5) [%]	Percent Increase of T1/2, Compound 3 over Compound 5 (Stability in buffer; buffer pH 7.4) [%]	half-life at 5 μM (Stability in buffer; buffer pH 5.5, 37° C.) [h]	half-life at 5 μM (Stability in buffer; buffer pH 6.0, 37° C.) [h]	half-life at 5 μM (Stability in buffer; buffer pH 6.5, 37° C.) [h]	half-life at 5 μM (Stability in buffer; buffer pH 7.4, 37° C.) [h]	Percent Increase of T1/2, Compound 3 over Compound 5 [1] [%]	half-life [1] [h]	Percent Increase of T1/2, Compound 3 over Compound 5 (Stability in plasma, dog) [%]	half-life (Stability in plasma, dog) [h]
CC(=O)N[C@@H](CSSCCCC(=O)OC(C(=O)O[C@H]1C[C@@]2(O)[C@@H](OC(=O)c3ccccc3)[C@@H]3[C@]4(OC(C)=O)CO[C@@H]4C[C@H](O)[C@@]3(C)C(=O)[C@H](OC(C)=O)C(=C1C)C2(C)C)[C@@H](NC(=O)c1ccccc1)c1ccccc1)C(=O)N[C@H](CCCNC(=N)N)C(=O)N[C@H](CCCNC(=N)N)C(=O)N[C@H](CCCNC(=N)N)C(=O)N[C@H](CCCNC(=N)N)C(=O)N[C@H](CCCNC(=N)N)C(=O)N[C@H](CCCNC(=N)N)C(=O)N[C@H](CCCNC(=N)N)C(=O)N[C@H](CCCNC(=N)N)C(N)=O (stereo partly drawn) [Compound 3, Ac-L-Cysteine (paclitaxel-4-mercaptobutanoate)-D-Arginine8-NH2]	6.05	6.36	8.01	10.67	125	99.5	92.3	54.6	18.45	1.22	1	2.79
CC(=O)N[C@H](CSSCCCC(=O)O[C@@H](C(=O)O[C@H]1C[C@@]2(O)[C@@H](OC(=O)c3ccccc3)[C@@H]3[C@]4(OC(C)=O)CO[C@@H]4C[C@H](O)[C@@]3(C)C(=O)[C@H](OC(C)=O)C(=C1C)C2(C)C)[C@@H](NC(=O)c1ccccc1)c1ccccc1)C(=O)N[C@H](CCCNC(=N)N)C(=O)N[C@H](CCCNC(=N)N)C(=O)N[C@H](CCCNC(=N)N)C(=O)N[C@H](CCCNC(=N)N)C(=O)N[C@H](CCCNC(=N)N)C(=O)N[C@H](CCCNC(=N)N)C(=O)N[C@H](CCCNC(=N)N)C(=O)N[C@H](CCCNC(=N)N)C(N)=O [Compound 5, Ac-D-Cysteine (paclitaxel-4-mercaptobutanoate)-D-Arginine8-NH2]	–	–	–	–	117	93.5	85.4	49.4	–	1.03	–	2.76

— patent publication US12337037B2, “Taxol conjugate compounds, pharmaceutical compositions comprising the same, and methods for their use” (N1 Life, Inc, priority 2021, dated 2025)
